Reference: article PMC8099640, “Collagen IV^α345 dysfunction in glomerular basement membrane diseases. III. A functional framework for α345 hexamer assembly” (The Journal of Biological Chemistry, 2021)
Blank lines part the entries; values can stand above or below the molecule they belong to.

Assays:
[1] = biological target: recombinant α345 miniprotomer (human) (UniProt Q01955); assay: atomic force microscopy; miniprotomer 1 to 2 μg/ml deposited on mica from buffer with chloride, imaged dry, AC tapping mode in air
[2] = biological target: the molecule itself; assay: SEC; NC1 monomers alone or in equimolar mixture, 2 mg/ml in 25-mM Tris acetic acid buffer pH 7.5, NaCl added (150 mM), 24 h at 37 °C; Superdex 200 Increase 10/300GL in TBS; hexamer peak blotted with α3, α4 and α5 NC1-specific mAbs

stoichiometry N [1]: 2
Molecule: recombinant α345 miniprotomer (from UniProt Q01955 29-1670; P53420 39-1690; P29400 27-1685) (complex)

B1: recombinant human collagen IV α5 NC1 monomer (domain or fragment, UniProt P29400 1461-1685, looked up)
chain: GFLITRHSQTTDAPQCPQGTLQVYEGFSLLYVQGNKRAHGQDLGTAGSCLRRFSTMPFMFCNINNVCNFASRNDYSYWLSTPEPMPMSMQPLKGQSIQPFISRCAVCEAPAVVIAVHSQTIQIPHCPQGWDSLWIGYSFMMHTSAGAEGSGQALASPGSCLEEFRSAPFIECHGRGTCNYYANSYSFWLATVDVSDMFSKPQSETLKAGDLRTRISRCQVCMKRT
notes: collagen IV α5 chain, NC1 domain, human; amplified by PCR from a human kidney cDNA library; Secreted by means of the BM-40 signal peptide of the vector (derivative of pRc-CMV)
stoichiometry N [2]: 6
